According to the supplement of paper PMC9732359:
± gives the uncertainty stated by the source.

Test: protein stability index of a GFP-peptide fusion (yeast GPS) (PSI 1-4); higher = more stable; sorted into four equal gates, so the index is relative within each strain
Procedure, shortened: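 Tiled yeast protein peptides of 17 residues were each joined downstream of GFP, on plasmids that also express Cherry. The pooled library was maintained in yeast, and mid-log cultures in leucine-free medium were sorted into four equal gates on the GFP/Cherry ratio. Plasmids from every gate were amplified by PCR and sequenced on Illumina, with barcodes linking reads to strains. The protein stability index of a peptide is its gate-number-weighted read frequency summed over the gates.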

Sequence | protein stability index (doa10∆) | protein stability index (pdr5∆) | protein stability index (san1∆) | protein stability index (ubr1∆)
QDGGIMGSLINGITLAL [SKI6] | 3.11 ± 0.075 | 2.58 ± 0.058 | 2.53 ± 0.057 | 2.66 ± 0.047
IATDGGRICRPLIIVSD [RET1] | 2.01 ± 0.046 | 2.1 ± 0.037 | 1.73 ± 0.06 | 2.14 ± 0.038
IYQIHIPYAAKLLFQEL [RPB2] | 2.64 ± 0.12 | 1.98 ± 0.12 | – | 2.88 ± 0.077
LELNLSVLHSWVQLVQI [YJL039C/NUP192] | 1.28 ± 0.074 | 1.91 ± 0.085 | 2.11 ± 0.12 | 1.93 ± 0.09
SGGGDSEVQRTMLELLN [RPT6] | 3.22 ± 0.18 | 2.42 ± 0.19 | – | 3.42 ± 0.066
FEIIFPPTDTNVEESVS [POP5] | 2.91 ± 0.091 | 2.68 ± 0.085 | 2.47 ± 0.071 | 3.09 ± 0.12
NTVPQVTNFNSTNEDQN [SRB5] | 2.83 ± 0.09 | 3.21 ± 0.056 | 3.02 ± 0.051 | 2.9 ± 0.051
APSANQGDEALSVDDIR [RTT102] | 3.15 ± 0.093 | 3.33 ± 0.1 | 2.98 ± 0.088 | –
ATSKTSEMLAKYSDILL [CDC53] | 3.11 ± 0.091 | 3.18 ± 0.099 | 2.99 ± 0.1 | 3.07 ± 0.048
ARIVRVRSREDRKNRAP [RPS26A] | 3.55 ± 0.23 | – | 3.27 ± 0.26 | 2.87 ± 0.099
IDPDTKAPNAVVITFEK [RPB11] | – | 3.22 ± 0.17 | 3.09 ± 0.094 | 2.93 ± 0.15
RNEQVTIELKNGTTVWG [SMD1] | 1.23 ± 0.099 | 1.78 ± 0.11 | 1.49 ± 0.24 | 1.16 ± 0.094
HHDYRSYYGIVCLMQIS [RRP6] | 2.03 ± 0.085 | 1.67 ± 0.067 | 1.32 ± 0.12 | 1.68 ± 0.076
RNMIIVPEMIGSVVGIY [RPS15] | 1.31 ± 0.094 | 1.42 ± 0.057 | 1.53 ± 0.13 | 1.45 ± 0.057
SLNEVGTLKVILNLYSS [YML103C/NUP188] | 1.93 ± 0.12 | 2.11 ± 0.29 | – | 2.4 ± 0.11
TIFKYLTDKDAFETHYR [CDC53] | 3.27 ± 0.11 | 3.12 ± 0.086 | 3.09 ± 0.049 | 2.98 ± 0.061
EIEQPVTTFVFTGQGSQ [FAS1] | 2.86 ± 0.1 | 2.91 ± 0.075 | 2.49 ± 0.14 | 2.24 ± 0.066
LLNILSGLPTCDYYNTF [RPN2] | 2.44 ± 0.1 | 2.73 ± 0.13 | 2.03 ± 0.16 | 2.3 ± 0.095
EVINKEIENATKDIFPL [RPS1A] | 3.25 ± 0.29 | 2.74 ± 0.19 | 2.9 ± 0.13 | 3.16 ± 0.082
LSLTLNTHYHADYRLIL [SNF2] | 2.83 ± 0.077 | 2.98 ± 0.08 | 2.75 ± 0.1 | 2.65 ± 0.073
KTICNLLISDTESNELI [IRR1] | 2.74 ± 0.063 | 2.73 ± 0.075 | 2.4 ± 0.055 | 2.68 ± 0.065
THPKDTFYITREKYNMK [ARP9] | 2.98 ± 0.12 | 3.09 ± 0.083 | 3.07 ± 0.06 | 3.31 ± 0.064
ITLLTRQRELLIAHQRS [GRR1] | 2.18 ± 0.039 | 2.14 ± 0.038 | 2.01 ± 0.045 | 1.89 ± 0.029
VSTRAIDLLWKGKTPKN [PRP28] | – | 1.48 ± 0.12 | 1.18 ± 0.12 | 1.16 ± 0.14
WAVKEGPLAEEPIYGVQ [SNU114] | 2.8 ± 0.067 | 2.53 ± 0.079 | 2.76 ± 0.061 | 1.8 ± 0.047
KVTKIWSKESNYDCKVI [PRP28] | 2.93 ± 0.1 | 2.47 ± 0.059 | 2.61 ± 0.051 | 2.97 ± 0.058
ISKHSKQAIYTRATASE [RPS25A] | 1.98 ± 0.056 | 2.03 ± 0.045 | 1.97 ± 0.072 | 1.85 ± 0.039

Sequence | protein stability index (doa10∆) | protein stability index (pdr5∆) | protein stability index (san1∆) | protein stability index (ubr1∆)
MDMNEIEDKENSESTTQ [RPT5] | 3.04 ± 0.15 | 3.25 ± 0.12 | 3.16 ± 0.12 | 3.21 ± 0.098
SYSPTSPSYSPTSPAYS [RPO21] | 3 ± 0.071 | 3.05 ± 0.063 | 2.73 ± 0.062 | 3.15 ± 0.048
TITKRNGAFQNSSNLSY [RRP4] | 3.04 ± 0.054 | 3.02 ± 0.057 | 3.1 ± 0.04 | 3.11 ± 0.042
YSIEMKPYSGKLLKVCL [ECM29] | 2.62 ± 0.077 | 2.33 ± 0.098 | 2.51 ± 0.076 | 2.83 ± 0.069
LKQHNQNNLPPNFFLTL [BRR2] | 2.81 ± 0.064 | 3.07 ± 0.069 | 2.84 ± 0.069 | 2.94 ± 0.071
NSGKQQYYRGLPLYEKN [SWP82] | 2.56 ± 0.089 | 2.5 ± 0.06 | 2.9 ± 0.075 | 3.01 ± 0.043
SGHDDLVHDVVYDFYGR [YGL100W/SEH1] | 2.49 ± 0.068 | 2.75 ± 0.067 | 2.39 ± 0.089 | 2.5 ± 0.065
TTVPFKESDDPSIPLVI [POP1] | 2.8 ± 0.068 | 3.01 ± 0.069 | 2.87 ± 0.054 | 2.89 ± 0.077
TIKILPENTAMFNPLHE [YMR129W/POM152] | 2.42 ± 0.064 | 2.36 ± 0.053 | 2.36 ± 0.058 | 2.5 ± 0.05
VSLVVNFQISKKMDDYI [PRP28] | 2.39 ± 0.066 | 2.05 ± 0.07 | 2.38 ± 0.1 | 2.03 ± 0.05
KERLVRDKKEKKQAQKQ [SMB1] | 3.25 ± 0.097 | 3.21 ± 0.086 | 2.82 ± 0.14 | 3.3 ± 0.086
INLTQTYGISVVDVALK [NUT1] | 2.24 ± 0.077 | 1.91 ± 0.054 | 1.76 ± 0.1 | 2.55 ± 0.038
NENPINKIMTNQINSFW [NUT1] | 2.5 ± 0.065 | 2.66 ± 0.064 | 2.43 ± 0.054 | 2.9 ± 0.042
PAIPPVIDLEKIKFDES [BRR2] | 2.85 ± 0.093 | 2.84 ± 0.093 | 2.67 ± 0.086 | 2.77 ± 0.082
KETTIEKLSSEIENLDK [YIL149C/MLP2] | 2.94 ± 0.068 | 2.89 ± 0.071 | 2.9 ± 0.063 | 3.15 ± 0.056
FTKYKPARSSSLRSNVV [YAR002W/NUP60] | 1.79 ± 0.046 | 2.44 ± 0.045 | 2.17 ± 0.07 | 2.7 ± 0.04
DALQDVEESSEKKQKTE [DPB4] | 3.2 ± 0.082 | 3.42 ± 0.076 | 3.21 ± 0.048 | 3.18 ± 0.052
QLFHSMSIVFGDKFSED [UBP6] | 1.62 ± 0.056 | 1.34 ± 0.06 | 1.14 ± 0.094 | 1.38 ± 0.041
PQRLTVLRLATNKGPLA [MCD1] | 2.78 ± 0.099 | 2.39 ± 0.073 | 2.8 ± 0.074 | 2.42 ± 0.074
KERKLRENIAMLKRFFP [SMC1] | 2.38 ± 0.18 | 2.52 ± 0.14 | 2.65 ± 0.23 | 2.59 ± 0.16
KQKSWVPSYIHVEKERA [YIL149C/MLP2] | 1.79 ± 0.058 | 2.25 ± 0.048 | 2.12 ± 0.082 | 2 ± 0.046
KIQFHIHFADVAHITTK [RGR1] | 2.88 ± 0.092 | 2.95 ± 0.087 | 2.83 ± 0.07 | 2.83 ± 0.058
LNDHIDDFEVNVASLVR [GRR1] | 3.29 ± 0.087 | 3.26 ± 0.13 | 2.31 ± 0.25 | 3.08 ± 0.087
VTLVNGKRRMNPGPSVQ [RPS30A] | 2.69 ± 0.049 | 2.94 ± 0.031 | 2.81 ± 0.047 | 2.87 ± 0.033
LYAITFRKGLGNPLLYD [QCR2] | 1.25 ± 0.17 | 1.32 ± 0.25 | – | –
HTLCNRCGRRSFHVQKK [RPL37A] | 2.98 ± 0.035 | 2.72 ± 0.048 | 2.83 ± 0.031 | 2.85 ± 0.029
IPVYCFSHPAHQQRMSR [YCG1] | 1.88 ± 0.037 | 2.04 ± 0.044 | 1.93 ± 0.046 | 2.04 ± 0.037
